Measured values as given in paper doi:10.1101/2023.06.21.545551.

Target: MYC(352–437):MAX(22–102) heterodimer (human) (UniProt P61244)
Experiment: NMR titration

MYC(352–437):MAX(22–102) heterodimer (human), sequence (P61244 whole entry, looked up, tested part not stated, one chain of several): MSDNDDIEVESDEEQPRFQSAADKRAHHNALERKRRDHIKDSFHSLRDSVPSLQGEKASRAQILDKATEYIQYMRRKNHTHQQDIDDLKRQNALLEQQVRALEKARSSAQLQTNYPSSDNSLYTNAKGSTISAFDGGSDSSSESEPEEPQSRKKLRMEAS

Substance: MYC(11–34), Mb0 peptide
- Kd: 7 µM
